Series [1] has as its target Ms_ornΔC (C-terminal deletion mutant of Ms_orn lacking residues 186-209) (Mycobacterium smegmatis mc2155). Put plainly: not stated; oligomeric state of purified Ms_ornΔC, shown in Fig. S3.
The target in series [2] is Orn of Mycobacterium smegmatis (MSMEG_4724, clone B) (Mycobacterium smegmatis mc2155). Kind of series: SEC; Superdex-75 column, Ms_orn with increasing concentrations of Gdm-HCl.
Series [3] has the same target. Kind of series: SEC; Superdex-75 (10/300) column, 20 mM Tris-HCl pH 8.5, 100 mM NaCl; elution volume compared with molecular weight standards.
Series [4] shares this target. Put plainly: SEC-MALS; Superdex-75 (10/300) with in-line MALLS and refractive index detectors, room temperature, 20 mM Tris-HCl pH 8.5, 100 mM NaCl, 5% glycerol, 0.5 ml/min; 200 ul of 3 mg/ml Ms_orn or 6 mg/ml Eco_orn.
Series [5] concerns the molecule itself. Put plainly: SEC; Superdex-75 (10/300) column, 20 mM Tris-HCl pH 8.5, 100 mM NaCl; elution volume compared with molecular weight standards.

“Ms_ornΔC (C-terminal deletion mutant of Ms_orn lacking residues 186-209) (domain or fragment)” registered a stoichiometry N in series [1] of 2.

On to “Orn of Mycobacterium smegmatis (MSMEG_4724, clone B) (enzyme)”, for which the stoichiometry N in series [2], in series [3] and in series [4] was 2 throughout.

B1: Orn of Escherichia coli (enzyme, Escherichia coli K-12, UniProt P0A784 1-181, looked up)
chain: MSANENNLIWIDLEMTGLDPERDRIIEIATLVTDANLNILAEGPTIAVHQSDEQLALMDDWNVRTHTASGLVERVKASTMGDREAELATLEFLKQWVPAGKSPICGNSIGQDRRFLFKYMPELEAYFHYRYLDVSTLKELARRWKPEILDGFTKQGTHQAMDDIRESVAELAYYREHFIKL
notes: Oligoribonuclease (Orn) of Escherichia coli K-12; open reading frame of orn amplified from genomic DNA; residues 2-181 traced in the structure; also called oligoribonuclease; not shown: His10-Smt3, N-terminal, cleaved
For the molecule B1, the “stoichiometry N” value in series [5] was determined as 2.
